The values below come from the supplement of paper PMC12042874.

± gives the uncertainty stated by the source.

A short description of the series: amyloid nucleation score (Sup35N fusion, yeast selection) (log enrichment); library NNK3; higher = more nucleation; inactive = no reads after selection. An outline of the steps:
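In psi-negative yeast, Sup35N fusions carrying peptides of 20 random codons were induced with 100 μM copper sulfate for 24 hours. The cells then grew 7 days at 30°C on medium lacking adenine and uracil, and plasmid inserts from input and output were Illumina-sequenced, excluding sequences with under 100 input reads. Nucleation score is the DiMSum log enrichment of output over input reads, centred on the mode score of non-aggregating sequences.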
In turn, NYWSTQLSIFCCKDCATTSA displayed an amyloid nucleation score of 2.42 ± 0.063.
The entry for PAMDII is “inactive”; for PAVQGSKDAASSAERCACQR it is “inactive”; for PCECTNHLACDNIPMRYTE it is “inactive”.
Consider PCICMVIQSGLDEYAYHVQR, for which the amyloid nucleation score entry is “inactive”.
With PCMNGVASFWNCGIKIFGSF, the amyloid nucleation score result is “inactive”.
The entry for PCPSEFDLSGRYRAAWVRCS is “inactive”; for PCSSLHCYMWYYVGANCHNL it is “inactive”; for PDLDYFMIHA it is “inactive”.
Consider PDSMNFTPDNHHVRNGYNNF, for which the amyloid nucleation score entry is “inactive”.
As for PECVVKSTN, the amyloid nucleation score result was “inactive”.
For the substance PELRRLTMESYIRNFWSVLS, the amyloid nucleation score result is “inactive”.
As for PFHGCPTHDCFNAGILALTV, the amyloid nucleation score result is “inactive”.
As for PFRVLLQGIKDAPSKFIDSG, the entry is “inactive”.
The entry for PFSFCHLLLSKISIGWRYSL is “inactive”.
The entry for PGFLGVPTACPLVSYDAVYP is “inactive”.
As to PGYSCIRDIQITR, the amyloid nucleation score entry is “inactive”.
Turning to PGYSHVRLVVSSPPLWTDLA, the amyloid nucleation score entry is “inactive”.
The entry for PHIGYCMW is “inactive”; for PHRGACMARTLSEVFCRAGS it is “inactive”; for PIPTKLLVLKRQSTMHLDRF it is “inactive”.
Turning to PIRSNVAMIPDD, the amyloid nucleation score entry was “inactive”.
In the case of PKNLFISRLPL, the amyloid nucleation score result is “inactive”.
As for PKVRMAPVNERNDFFSVILG, the entry is “inactive”; as for PLCIHLVVMKSKPATNFSGA, “inactive”.
With PLDQCPKVPSLVASLQSESR, the amyloid nucleation score entry is “inactive”.
With PLEGTALRHMVSMYYLSCWT, the amyloid nucleation score result was “inactive”.
Consider PLGDARLTSRRDPPYRTTPL, for which the amyloid nucleation score stood at 0.979 ± 0.17.
As to PLITVDY, the amyloid nucleation score is -0.153 ± 0.7.
For PLQDL, the amyloid nucleation score result was “inactive”.
PLRKCAMCSWVSSGEGPTYP: the amyloid nucleation score was 0.483 ± 0.24.
PLRKSGQPSYAMPTRHARCI: the amyloid nucleation score result is “inactive”.
As for PLRRSMMRIPHATF, the entry is “inactive”.
Regarding PLSLGFVIGHHVSIPGSSTD, the amyloid nucleation score entry was “inactive”.
As to PLTFT, the amyloid nucleation score result is “inactive”.
The entry for PNCGFVCMKMCATTDLFVCV is “inactive”; for PNMSIPLLCLCDNISDFHRF it is 1.69 ± 0.12; for PNRQDYIVTYLGIPNFLSTW it is “inactive”.
As to PNRQTLFSSIRF, the amyloid nucleation score turned out to be 0.092 ± 0.56.
As for PPFYMCFYLFVGLRNSMGWL, the entry is “inactive”; as for PPVLVNGLTLKWEGVYSVNY, 0.802 ± 0.21.
As for PQTWVTWKIWYLGFGVAVGV, the entry is “inactive”.
PRDCS: the amyloid nucleation score result was “inactive”.
As for PREARQHRVRRTGFSVVFVS, the entry is “inactive”.
The entry for PRGWWPMGFSCGYFVFALTP is “inactive”; for PRNMVFYVFCNVSLTHAMYS it is 0.845 ± 0.12.
As for PRRSNSFRLPLIHISQYSLK, the figure is 0.939 ± 0.2; as for PRSANSARCVTISSNMEHSR, “inactive”; as for PRTQSYECVYGYSLKRNWLA, “inactive”.
With PRYRSLWFAKHMLAVLGSKW, the amyloid nucleation score entry is “inactive”.
With PSHWFISL, the amyloid nucleation score entry is “inactive”.
As for PSSIKRVL, the figure is -0.33 ± 0.8; as for PSVHCMWCPRQPDVFPRWIV, “inactive”.
